{
  "source": "patent US6423539B1",
  "about": "“Adjuvant treatment by in vivo activation of dendritic cells” (The Board of Trustees of the Leland Stanford Junior …, priority 2000, dated 2002)",
  "key": {"circulating blood DC": {"tested_on": "circulating blood DC", "assay": "Clinical study: expansion and phenotype of circulating blood DC after Flt3L administration", "type": "in vivo, human", "method": "Clinical studies were also performed to determine the effect of the activation methods in human patients. It was shown that administration of FL to patients with advanced cancer mobilizes DC precursors into the blood, resulting in an increase of circulating DC of 20 fold on average.\nAn expansion of circulating blood DC was found following Flt3L administration. PBMC from patients with advanced cancer were assessed either before or following 10 days of Flt3L administration. DC were characterized phenotypically by expression of HLA DR without expression of lineage markers (CD3, 14, 19, 56).\nDC were gated on their expression of HLA DR and lack of lineage markers CD3, 14, 19, 56. Flt3L expanded DC express intermediate levels of CD4 and CD54 more homogeneously by comparison with unmobilized DC. Flt3L expanded DC, however, lack surface expression of CD86 and CD40 compared with unmobilized DC. Results are from one patient and are representative of three patients studied."}, "circulating DC": {"tested_on": "circulating DC", "conditions": "administration to mice in vivo; cited from earlier work"}},
  "data": [
    {"molecule": "FL: Flt-3 ligand, growth factor that stimulates proliferation of hematopoietic progenitor cells; DC mobilization agent (protein, UniProt P49771 27-235, looked up) Fms-related tyrosine kinase 3 …: TQDCSFQHSPISSDFAVKIRELSDYLLQDYPVTVASNLQDEELCGGLWRLVLAQRWMERLKTVAGSKMQGLLERVNTEIHFVTKCAFQPPPSCLRFVQTNISRLLQETSEQLVALKPWITRQNFSRCLELQCQPDSSTLPPPWSPRPLEATAPTAPQPPLLLLLLLPVGLLLLAAAWCLHWQRTRRRTPRPGEQVPPVPSPQDLLLVEH", "values": [
      {"measurement": "phenotype of expanded human DC", "setting": "circulating blood DC; gated HLA DR positive, lineage negative, one patient, representative of three", "value": "immature phenotype"},
      {"measurement": "change in circulating blood DC precursors by flow cytometry", "setting": "circulating blood DC; patients with advanced cancer, before vs. after 10 days of Flt3L", "value": "significant increase"},
      {"measurement": "increase of circulating DC", "setting": "circulating blood DC; patients with advanced cancer, on average", "value": 20, "unit": "fold"},
      {"measurement": "increase in number of circulating DC", "setting": "circulating DC", "value": "10-30 fold"}
    ]}
  ]
}
